This note sets out measurements from PMC10141391, “Structural Analysis of Bacillus subtilis Sigma Factors” (Microorganisms, 2023).

In this test the target is T1, SigE^17–133 (B. subtilis SigE residues 17–133) (B. subtilis, 15N-labelled).
T1 construct: Cloned BamHI/XhoI into pET28-TxrA (His tag, thioredoxin, TEV site)
T1 chain: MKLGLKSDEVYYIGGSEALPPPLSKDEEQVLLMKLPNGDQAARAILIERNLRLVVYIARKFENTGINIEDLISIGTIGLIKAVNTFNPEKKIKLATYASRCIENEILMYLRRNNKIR
The test is described as follows: NMR titration; 1H-15N HSQC chemical shift perturbation; 100 uM 15N-labelled SigE 17-133 alone and with a 2-fold excess of unlabelled CsfB A48E; 298 K, 700 MHz; 50 mM HEPES pH 7.5, 150 mM KCl, 0.5 mM TCEP. As to conditions: both partners purified.

B1: CsfB^A48E (natural protein, B. subtilis)
chain: MDETVKLNHTCVICDQEKNRGIHLYTKFICLDCERKVISTSTSDPDYEFYVKKLKSIHTPPLYS
notes: Anti-sigma factor CsfB (Gin), B. subtilis, with the stabilising mutation A48E; In pNIC28 (TEV-cleavable N-terminal His tag); also called CsfB/Gin; Gin; source: E. coli BL21(DE3)pLysS, purified (IMAC, SEC)
Turning to B1, the binding result is given as “binds”.
